We go through three molecules from patent publication US20200231652A1.

For assay [1], the target named is TGF-β1 (UniProt P01137). Description: cell-based or functional assay.
For another assay, the target named is TGF-β2 (UniProt P61812). Description: cell-based or functional assay.
A further assay addresses TGF-β3 (UniProt P10600). Description: cell-based or functional assay.
Assay [2] addresses TGF-β1 (UniProt P01137).

Chain of TGF-β2 (P61812 303-414 limits assumed): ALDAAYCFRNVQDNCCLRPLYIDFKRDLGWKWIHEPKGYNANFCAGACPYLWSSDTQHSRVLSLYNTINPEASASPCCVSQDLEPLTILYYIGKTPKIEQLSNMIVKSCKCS
Chain of TGF-β3 (P10600 301-412 limits assumed): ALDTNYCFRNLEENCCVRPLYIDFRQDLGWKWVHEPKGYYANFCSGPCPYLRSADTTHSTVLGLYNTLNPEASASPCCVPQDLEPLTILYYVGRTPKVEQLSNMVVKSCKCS
Chain of TGF-β1 (P01137 279-390 limits assumed): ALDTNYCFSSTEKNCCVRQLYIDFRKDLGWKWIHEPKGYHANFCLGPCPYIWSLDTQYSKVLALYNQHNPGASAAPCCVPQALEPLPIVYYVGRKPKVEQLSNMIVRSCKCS

B1: FC5-Fc-T2m (Fc fusion)
chain: EVQLQASGGGLVQAGGSLRLSCAASGFKITHYTMGWFRQAPGKEREFVSRITWGGDNTFYSNSVKGRFTISRDNAKNTVYLQMNSLKPEDTADYYCAAGSTSTATPLRVDYWGKGTQVTVSSASEPRGPTIKPCPPCKCPAPNLLGGPSVFIFPPKIKDVLMISLSPIVTCVVVDVSEDDPDVQISWFVNNVEVHTAQTQTHREDYNSTLRVVSALPIQHQDWMSGKEFKCKVNNKDLPAPIERTISKPKGSVRAPQVYVLPPPEEEMTKKQVTLTCMVTDFMPEDIYVEWTNNGKTELNYKNTEPVLDSDGSYFMYSKLRVEKKNWVERNSYSCSVVHEGLHNHHTTKSFSRTPGTGIPPHVQKSVNNDMIVTDNNGAVKFPQLCKFCDVRFSTCDNQKSCMSNCSITSICEKPQEVCVAVWRKNDENITLETVCHDPKLPYHDFILEDAASPKCIMKEKKKPGETFFMCSCSSDECNDNIIFSEEYNTSNPD
Turning to B1, the figures for the Av IC50, TGF-β neutralization, Mv1Lu cell luciferase reporter assay with TGF-β1 [1], in the assay with TGF-β2 and with TGF-β3 were 0.017 pM, 433000 pM and 0.015 pM, respectively.

B2: hIgG2Fc-CCCC-T22d35 fusion (Fc fusion)
chain: ERKCCVECPPCPAPPVAGPSVFLFPPKPKDTLMISRTPEVTCVVVDVSHEDPEVQFNWYVDGVEVHNAKTKPREEQFNSTFRVVSVLTVVHQDWLNGKEYKCKVSNKGLPAPIEKTISKTKGQPREPQVYTLPPSREEMTKNQVSLTCLVKGFYPSDISVEWESNGQPENNYKTTPPMLDSDGSFFLYSKLTVDKSRWQQGNVFSCSVMHEALHNHYTQKSLSLSPGKIPPHVQKSVNNDMIVTDNNGAVKFPQLCKFCDVRFSTCDNQKSCMSNCSITSICEKPQEVCVAVWRKNDENITLETVCHDPKLPYHDFILEDAASPKCIMKEKKKPGETFFMCSCSSDECNDNIIFSEEYNTSNPDIPPHVQKSVNNDMIVTDNNGAVKFPQLCKFCDVRFSTCDNQKSCMSNCSITSICEKPQEVCVAVWRKNDENITLETVCHDPKLPYHDFILEDAASPKCIMKEKKKPGETFFMCSCSSDECNDNIIFSEEYNTSNPD
In the assay with TGF-β1 [1], B2 returned an Av IC50, TGF-β neutralization, Mv1Lu cell luciferase reporter assay of 1.45 pM and an IC50, A549 cell IL-11 release assay of 5 pM. Moreover, the Av IC50, TGF-β neutralization, Mv1Lu cell luciferase reporter assay with TGF-β2 worked out at 108000 pM. For the same molecule, the Av IC50, TGF-β neutralization, Mv1Lu cell luciferase reporter assay with TGF-β3 turned out to be 0.026 pM. Moreover, in the assay with TGF-β1 [2], the Fold Change Fc-T2m, A549 cell IL-11 release assay [table] stood at 9 fold; the Fold Change T22d35, A549 cell IL-11 release assay [table] stood at 94 fold; the IC50, A549 cell IL-11 release assay [table] was 6.17 pM.

B3: FC5-Fc-T22d35 (Fc fusion)
chain: EVQLQASGGGLVQAGGSLRLSCAASGFKITHYTMGWFRQAPGKEREFVSRITWGGDNTFYSNSVKGRFTISRDNAKNTVYLQMNSLKPEDTADYYCAAGSTSTATPLRVDYWGKGTQVTVSSASEPRGPTIKPCPPCKCPAPNLLGGPSVFIFPPKIKDVLMISLSPIVTCVVVDVSEDDPDVQISWFVNNVEVHTAQTQTHREDYNSTLRVVSALPIQHQDWMSGKEFKCKVNNKDLPAPIERTISKPKGSVRAPQVYVLPPPEEEMTKKQVTLTCMVTDFMPEDIYVEWTNNGKTELNYKNTEPVLDSDGSYFMYSKLRVEKKNWVERNSYSCSVVHEGLHNHHTTKSFSRTPGTGIPPHVQKSVNNDMIVTDNNGAVKFPQLCKFCDVRFSTCDNQKSCMSNCSITSICEKPQEVCVAVWRKNDENITLETVCHDPKLPYHDFILEDAASPKCIMKEKKKPGETFFMCSCSSDECNDNIIFSEEYNTSNPDIPPHVQKSVNNDMIVTDNNGAVKFPQLCKFCDVRFSTCDNQKSCMSNCSITSICEKPQEVCVAVWRKNDENITLETVCHDPKLPYHDFILEDAASPKCIMKEKKKPGETFFMCSCSSDECNDNIIFSEEYNTSNPD
In the assay with TGF-β1 [1], B3 showed an Av IC50, TGF-β neutralization, Mv1Lu cell luciferase reporter assay of 0.001 pM and an IC50, A549 cell IL-11 release assay of 5 pM. Besides, in the assay with TGF-β2, the Av IC50, TGF-β neutralization, Mv1Lu cell luciferase reporter assay stood at 96200 pM. This molecule also gave an Av IC50, TGF-β neutralization, Mv1Lu cell luciferase reporter assay with TGF-β3 of 0.001 pM. Moreover, in the assay with TGF-β1 [2], the Fold Change Fc-T2m, A549 cell IL-11 release assay [table] was 10 fold; the Fold Change T22d35, A549 cell IL-11 release assay [table] turned out to be 101 fold; the IC50, A549 cell IL-11 release assay [table] was 5.73 pM.
